Molecular target: T1, Cdc13-DBD (Saccharomyces cerevisiae, UniProt P32797 497-694)
T1 sequence: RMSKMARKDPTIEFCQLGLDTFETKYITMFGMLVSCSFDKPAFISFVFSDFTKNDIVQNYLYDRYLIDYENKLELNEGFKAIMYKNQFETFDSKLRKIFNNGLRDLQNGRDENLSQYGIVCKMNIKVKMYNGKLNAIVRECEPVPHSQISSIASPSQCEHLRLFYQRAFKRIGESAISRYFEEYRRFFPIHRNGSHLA
Experiment: NMR

GTGTGGGTGTG (ssDNA) [Tel11]
binding result: binds
